Experimental data from patent publication US20230265151A1, “GIP/GLP1 CO-AGONIST COMPOUNDS” (priority 2020, published 2023).

T1: human GIP receptor (human, UniProt P48546 22-466)
T1 sequence (looked up): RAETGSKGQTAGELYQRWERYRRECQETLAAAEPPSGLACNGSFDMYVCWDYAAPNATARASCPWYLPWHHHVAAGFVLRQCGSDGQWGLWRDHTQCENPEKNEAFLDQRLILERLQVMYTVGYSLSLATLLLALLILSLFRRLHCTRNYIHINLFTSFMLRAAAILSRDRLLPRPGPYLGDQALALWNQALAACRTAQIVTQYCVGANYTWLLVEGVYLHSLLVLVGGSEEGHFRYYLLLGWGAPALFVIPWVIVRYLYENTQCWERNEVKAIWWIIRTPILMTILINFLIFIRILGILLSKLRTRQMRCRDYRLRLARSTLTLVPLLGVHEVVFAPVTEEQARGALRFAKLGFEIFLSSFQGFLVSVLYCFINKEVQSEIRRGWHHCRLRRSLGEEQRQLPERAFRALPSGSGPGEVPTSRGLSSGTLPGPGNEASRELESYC

T2: human glucose-dependent insulinotropic polypeptide (GIP) receptor (human, UniProt P48546 22-466)
T2 sequence (looked up): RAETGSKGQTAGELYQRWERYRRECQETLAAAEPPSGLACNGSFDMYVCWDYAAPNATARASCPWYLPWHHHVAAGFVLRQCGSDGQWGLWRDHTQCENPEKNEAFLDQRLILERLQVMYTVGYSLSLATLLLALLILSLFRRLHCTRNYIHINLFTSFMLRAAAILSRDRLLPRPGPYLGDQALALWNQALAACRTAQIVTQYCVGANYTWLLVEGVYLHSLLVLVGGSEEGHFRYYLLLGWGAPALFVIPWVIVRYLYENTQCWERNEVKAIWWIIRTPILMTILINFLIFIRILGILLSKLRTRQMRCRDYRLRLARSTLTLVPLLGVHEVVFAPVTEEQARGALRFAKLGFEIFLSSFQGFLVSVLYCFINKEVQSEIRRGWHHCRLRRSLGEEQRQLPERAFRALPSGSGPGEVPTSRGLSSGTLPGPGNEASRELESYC


Tests used:
Assay in all cases: cell-based or functional assay
[1] = molecular target: T1, human GIP receptor
[2] = molecular target: human GLP-1 receptor (human, UniProt P43220 24-463)
[3] = molecular target: human glucagon receptor (human, UniProt P47871 26-477)
[4] = molecular target: T2, human glucose-dependent insulinotropic …
[5] = molecular target: human glucagon-like peptide-1 (GLP-1) receptor (human, UniProt P43220 24-463)
[6] = molecular target: human glucagon receptor (human, UniProt P47871 26-477); remark: listed apart in the source

Row | Binder | cAMP EC50 (1.0% HSA) [1] [nM] | cAMP Emax (1.0% HSA) [1] [%] | cAMP EC50 (1.0% HSA) [2] [nM] | cAMP EC50 (1.0% HSA) [3] [nM] | cAMP Emax (1.0% HSA) [2] [%] | cAMP EC50 [4] [nM] | cAMP Emax [4] [%] | cAMP EC50 [5] [nM] | cAMP EC50 [6] [nM]
1 | YXEGTXTSDXSIXLDXKAQXEFIXXLIEGGKSSGAPPPS (Aib2, αMeF6, αMeF10, αMeL13, Orn16, Aib20, D-Glu24, αMeY25; acylated K17, K31 (groups as in name); C-terminal amide) | 13.7 | 72.5 | 387 | > 9950 | – | – | – | – | –
2 | YXEGTXTSDYXIXLDXKAQXEFIXXLIEGGKSSGAPPPS (Aib2, αMeF(2F)6, αMeS11, αMeL13, Orn16, Aib20, D-Glu24, αMeY25; acylated K17, K31 (groups as in name); C-terminal amide) | 1.51 | 92.4 | 20.1 | > 9950 | – | – | – | – | –
3 | YXEGTXTSDXSIXLDXKAQXEFIXXLIEGGKSSGAPPPS (Aib2, αMeF(2F)6, αMeV10, αMeL13, Orn16, Aib20, D-Glu24, αMeY25; acylated K17, K31 (groups as in name); C-terminal amide) | 18.6 | – | 37.8 | > 9950 | – | – | – | – | –
4 | YXEGTXTSDXSIXLDXKAQXEFIXXLIEGKPSSGAPPPS (Aib2, αMeF(2F)6, 4Pal10, αMeL13, Orn16, Aib20, D-Glu24, αMeY25; acylated K17, K30 (groups as in name); C-terminal amide) | 0.444 | – | – | > 9950 | 103 | – | – | – | –
5 | YXEGTXTSDXSIXLDXKAQXEFIXXLIEGGKSSGAPPPS (Aib2, αMeF6, 4Pal10, αMeF13, Orn16, Aib20, D-Glu24, αMeY25; acylated K17, K31 (groups as in name); C-terminal amide) | 12.8 | 73.3 | 261 | > 9950 | – | – | – | – | –
6 | YXEGTXTSDXSIXLDXIAQXEFIKXLIEGGKSSGAPPPS (Aib2, αMeF(2F)6, 4Pal10, αMeL13, Orn16, Aib20, K24(Z), αMeY25, K31(Z), C-terminal NH2; Z = (εK)-(γ-Glu)-CO-(CH2)12-CO2H) [Example 197] | – | – | – | – | – | 0.0338 | 102 | 0.336 | > 9950
7 | YXEGTXTSDXSIXLDXKAQXEFIXXLIEGGKSSGAPPPS (Aib2, αMeF(2F)6, αMeL10, αMeL13, Orn16, Aib20, D-Glu24, αMeY25; acylated K17, K31 (groups as in name); C-terminal amide) | 15.8 | – | 100 | > 9950 | – | – | – | – | –
8 | YXEGTXTSDXSIXLDXIAQXEFIKXLIEGGKSSGAPPPS (Aib2, αMeF(2F)6, 4Pal10, αMeL13, Orn16, Aib20, K24(Z), αMeY25, K31(Z), C-terminal NH2; Z = (εK)-(εK)-(γ-Glu)-CO-(CH2)12-CO2H) [Example 198] | – | – | – | – | – | 0.0269 | 94 | 0.362 | > 9950
9 | YXEGTXTSDXSIXLDXIAQXKFIXXLIEGGPSSGAPPPSK (Aib2, αMeF(2F)6, 4Pal10, αMeL13, Orn16, Aib20, K21(Z), D-Glu24, αMeY25, K40(Z), C-terminal NH2; Z = AEEA2-CO-(CH2)12-CO2H) [Example 196] | – | – | – | – | – | 0.0232 | – | 0.356 | > 9950
